Where a chain is given by its changes, count along the chain named. Values belong to the binder of their own block, whether it stands above or below them.
Tests used:
Conditions in all cases: both partners purified
[1] = target: T1, hen egg lysozyme (hen, UniProt P00698 19-147); experiment: SPR; HEL immobilised on CM5 chip (200 RU), VHH flowed over, multi-cycle, 10 °C, PBS with 0.005% Tween 20, global fit to a 1:1 binding model
T1 construct: hen egg lysozyme (HEL), bought, used without further purification; also called HEL; source: bought: Wako Pure Chemical (Cat. No. 126-02671)

[2] = target: T1, hen egg lysozyme; experiment: SPR; HEL immobilised on CM5 chip (200 RU), VHH flowed over, multi-cycle, 30 °C, PBS with 0.005% Tween 20, global fit to a 1:1 binding model
[3] = target: T1, hen egg lysozyme; experiment: ITC; iTC200, 25 °C, PBS; VHH (10 µM) in the cell titrated with HEL (100 µM); 1:1 binding model; two independent measurements
[4] = target: T1, hen egg lysozyme; experiment: SPR; HEL immobilised on CM5 chip (200 RU), VHH flowed over, multi-cycle, 22 °C, PBS with 0.005% Tween 20, global fit to a 1:1 binding model
[5] = target: T1, hen egg lysozyme; experiment: SPR; HEL immobilised on CM5 chip (200 RU), VHH flowed over, multi-cycle, 26 °C, PBS with 0.005% Tween 20, global fit to a 1:1 binding model
[6] = target: T1, hen egg lysozyme; experiment: SPR; HEL immobilised on CM5 chip (200 RU), VHH flowed over, multi-cycle, 14 °C, PBS with 0.005% Tween 20, global fit to a 1:1 binding model
[7] = target: T1, hen egg lysozyme; experiment: SPR; HEL immobilised on CM5 chip (200 RU), VHH flowed over, multi-cycle, 18 °C, PBS with 0.005% Tween 20, global fit to a 1:1 binding model
[8] = target: T2, hen egg lysozyme (Gallus gallus (hen), UniProt P00698); experiment: SPR; Biacore T200; HEL immobilised on CM5 chip (200 RU); VHH flowed over; 25 °C; PBS with 0.005% Tween 20; global fit to a 1:1 binding model
T2 construct: hen egg lysozyme (lysozyme C), bought from Wako Pure Chemical; also called HEL; source: bought: Wako Pure Chemical (Cat. No. 126-02671), used without further purification
How it was run: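 Binding of the His6-tagged single-domain antibody, expressed in E. coli BL21(DE3) and purified by Ni-NTA and size-exclusion chromatography, was measured by surface plasmon resonance on a Biacore T200 against hen egg lysozyme immobilised on a CM5 chip (200 RU). Runs were at 25 °C in PBS with 0.005% Tween 20, with 300 s contact, 600 s dissociation and regeneration in 1.0 M Arg-HCl pH 4.4. Antibody concentrations were adjusted per mutant. Kd, kon and koff came from global fitting to a 1:1 binding model in BiaEvaluation.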

T1 sequence (P00698 19-147): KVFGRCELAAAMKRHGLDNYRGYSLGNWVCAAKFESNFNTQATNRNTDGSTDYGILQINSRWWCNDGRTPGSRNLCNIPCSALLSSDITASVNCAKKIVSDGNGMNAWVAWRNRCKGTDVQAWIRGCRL
T2 sequence (P00698 19-147): as above

Kd [1]: 0.0267 nM
koff [1]: 7.52e-05 s⁻¹
kon [1]: 2.81e+06 M⁻¹ s⁻¹
Kd [2]: 0.177 nM
koff [2]: 0.0015 s⁻¹
kon [2]: 8.48e+06 M⁻¹ s⁻¹
Kd [3]: 3.8 nM
stoichiometry N [3]: 0.88
Kd [4]: 0.0897 nM
koff [4]: 0.000492 s⁻¹
kon [4]: 5.48e+06 M⁻¹ s⁻¹
Kd [5]: 0.127 nM
koff [5]: 0.000847 s⁻¹
kon [5]: 6.81e+06 M⁻¹ s⁻¹
Kd [6]: 0.0395 nM
koff [6]: 0.000139 s⁻¹
kon [6]: 3.52e+06 M⁻¹ s⁻¹
Kd [7]: 0.0549 nM
koff [7]: 0.000274 s⁻¹
kon [7]: 4.99e+06 M⁻¹ s⁻¹
B1: D3-L11 (wild type), VHH specific for hen egg lysozyme (VHH)
VHH: DVQLVESGGGSVQAGGSLRLSCAASGSTDSIEYMTWFRQAPGKAREGVAALYTHTGNTYYTDSVKGRFTISQDKAKNMAYLRMDSVKSEDTAIYTCGATRKYVPVRFALDQSSYDYWGQGTQVTVSS
notes: also called WT; WT antibody; source: E. coli BL21(DE3), purified (Ni-NTA, SEC)

Kd [8]: 0.0911 nM
koff [8]: 0.000687 s⁻¹
kon [8]: 7.54e+06 M⁻¹ s⁻¹
B2: D3-L11 K101A (VHH)
VHH: B1 VHH with K101A
notes: as the VHH chain of m2 with the stated change; source: E. coli BL21(DE3), purified (Ni-NTA, SEC)

Kd [8]: 1.65 nM
koff [8]: 0.00183 s⁻¹
kon [8]: 1.11e+06 M⁻¹ s⁻¹
B3: D3-L11 R106A (VHH)
VHH: B1 VHH with R106A
notes: as for B2

Kd [8]: 2.65 nM
koff [8]: 0.00921 s⁻¹
kon [8]: 3.48e+06 M⁻¹ s⁻¹
B4: D3-L11 H54A (VHH)
VHH: B1 VHH with H54A
notes: as for B2

Kd [8]: 1.61 nM
koff [8]: 0.00831 s⁻¹
kon [8]: 5.17e+06 M⁻¹ s⁻¹
B5: D3-L11 S113A (VHH)
VHH: B1 VHH with S113A
notes: as for B2

Kd [8]: 0.156 nM
koff [8]: 0.000956 s⁻¹
kon [8]: 6.11e+06 M⁻¹ s⁻¹
B6: D3-L11 D115A (VHH)
VHH: B1 VHH with D115A
notes: as for B2

Reference: paper PMC6820745, “Structural and thermodynamic basis for the recognition of the substrate-binding cleft on hen egg lysozyme by a single-domain antibody” (Scientific Reports, 2019)
